These results are taken from patent US20260176636, “APTAMER-DIRECT INHIBITOR CONJUGATES AND METHODS OF USING THE SAME” (Duke University, published 2026).

For data set [1], the target named is T1, thrombin (human alpha thrombin) (human, UniProt P00734;P00734 P00734:328-363,P00734:364-622). Kind of data set: inhibition; ±0.04; max inhibition 55%; KEA,I 1.8.
The target in data set [2] is T2, factor Xa (human, UniProt P00742;P00742 P00742:41-179,P00742:235-488). Kind of data set: inhibition; fluorogenic substrate; free DAB IC50 >500 nM. As to conditions: tags: Haematologic Technologies Inc.
Data set [3] concerns the target T2, factor Xa. Kind of data set: inhibition; fluorogenic substrate; free APX IC50 5.5 nM. As to conditions: tags: Haematologic Technologies Inc.
For data set [4], the target named is T1, thrombin (human alpha thrombin). Kind of data set: BLI; no binding observed. Background: Biolayer interferometry detects binding as a change in optical thickness at a sensor tip.
Data set [5] shares this target. Kind of data set: inhibition; fluorogenic peptidyl substrate; >99% max inhibition; 2 mM CaCl2, pH 7.5, 28 C.
The target is the same in data set [6]. Kind of data set: BLI; printed as 54 μM but kon 3.9e7 M-1s-1 and koff 2.1e-3 s-1 give 54 pM; biotinylated aptamer immobilised; 20 mM HEPES, 150 mM NaCl, 2 mM CaCl2, pH 7.5.
Data set [7] has the same target. Kind of data set: BLI; kon down 15-fold, koff up 8-fold; absolute KD only in figure.

T2 sequence (P00742 41-179, chain 1 of 2): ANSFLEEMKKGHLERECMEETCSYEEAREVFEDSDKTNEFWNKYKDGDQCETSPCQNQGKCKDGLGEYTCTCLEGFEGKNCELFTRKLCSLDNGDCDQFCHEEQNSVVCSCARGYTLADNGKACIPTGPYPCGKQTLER
T2 sequence (P00742 235-488, chain 2 of 2): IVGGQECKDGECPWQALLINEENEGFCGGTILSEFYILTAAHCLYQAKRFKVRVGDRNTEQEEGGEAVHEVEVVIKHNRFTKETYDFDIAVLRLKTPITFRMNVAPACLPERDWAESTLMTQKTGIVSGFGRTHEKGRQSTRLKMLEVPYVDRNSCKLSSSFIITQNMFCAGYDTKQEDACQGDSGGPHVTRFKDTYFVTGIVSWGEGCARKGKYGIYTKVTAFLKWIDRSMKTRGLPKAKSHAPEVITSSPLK

For the molecule AGTCCGTGGTAGGGCAGGTTGGGGTGACT (ssDNA, 5' dabigatran-C6) [HD22-0A-DAB], half-maximal inhibition in data set [1] (IC50) required 0.55 nM.

B1: 11F7t-20A-DAB (ssRNA)
RNA: AAAAAAAAAAAAAAAAAAAAGAGAGCCCCAGCGAGAUAAUACUUGGCCCCGCUCUU
modifications: 5' dabigatran-C6; 2'-OMe A(20) linker; C and U of aptamer 2'-F (inferred); 3' T
B1: inhibition in data set [2] was half-maximal at 0.18 nM (IC50).

B2: 11F7t-20A-APX (ssRNA)
RNA: B1 RNA
modifications: 5' apixaban-C6; 2'-OMe A(20) linker; C and U of aptamer 2'-F (inferred); 3' T
In the case of B2, the midpoint of inhibition in data set [3], the IC50, lay at 0.17 nM.

As for AAAAAAAAGTCCGTAATAAAGCAGGTTAAAATGACT (ssDNA, 5' NH2-C6; 5' A(7) dA linker) [HD23-7A-NH2], the binding result in data set [4] is “no binding”.

As to AAAAAAAAGTCCGTGGTAGGGCAGGTTGGGGTGACT (ssDNA, 5' dabigatran-C6 amide; 5' A(7) dA linker) [HD22-7A-DAB], the IC50 (usually the concentration that gives 50% inhibition) in data set [5] is 0.1 nM. Further, binding in data set [6] was put at a Kd of 0.054 nM.

For AAAAAAAAGTCCGTGGTAGGGCAGGTTGGGGTGACT (ssDNA, 5' NH2-C6; 5' A(7) dA linker) [HD22-7A-NH2], the Kd (usually the free concentration of one partner at which half of the binding sites on the other are occupied at equilibrium, for simple one-to-one binding) in data set [7] is > 100 fold weaker than HD22-7A-DAB.
